Results taken from patent US20250188133A1, “CHIMERIC BACTERIOCINS AND METHOD FOR THE CONTROL OF PSEUDOMONAS” (priority 2022, published 2025).
“And” between values parts separate entries of the source, which are not always exact repeats. Equal values may be shown once.

Experiments:
P. aeruginosa ATCC 19660 [1] = assay: MIC by agar dilution method; type: cell-based; conditions: against ATCC 19660; CAA agar with 0.1 mg/ml BSA
Protocol: (§1) Aliquots of melted CAA (1.5% agar) medium (final volume—25 ml) pre-wormed to 51° C. were supplemented with 0.1 mg/ml BSA and with appropriate amounts of pyocin stock solutions of different concentrations (concentrations lowered by a factor of 2). Aliquots were poured into Petri plates. P. aeruginosa cultures were grown from single colony in CAA medium at 37° C., 200 rpm until OD595=0.2 and diluted to 10^7 CFU/ml in CAA medium. 1 μL of bacteria suspension were applied in three replicates on each test plate. Plates were left to incubate in 37° C. overnight. The determined MIC is a concentration of pyocin, where no confluent bacterial growth is observed.

P. aeruginosa PAO1 [2] = assay: MIC by agar dilution method; type: cell-based; conditions: against PAO1; CAA agar with 0.1 mg/ml BSA
Protocol: as §1

P. aeruginosa ATCC 19660 [3] = assay: ex vivo porcine corneas as model for bacterial keratitis; type: cell-based; conditions: 5 μg applied 16-20 h after colonization, further 16-20 h incubation
Protocol: (§2) Preparation of porcine corneas. Porcine eyes were acquired from the nearest slaughterhouse. Enucleated eyes were stored at −70° C. Before the start of experiment, eyes were transferred to 4° C. for 1 hour, then to room temperature for 1-2 hours until the eyeballs were completely defrosted. Then eyeballs were individually placed in sterile plastic containers and submerged for 5 min in 2.5% Povidone-iodine (Betadine 100 mg/ml; EGIS Pharmaceuticals PLC), then twice washed with sterile PBS. The corneas were excised with sterile surgical blade No. #12. The excised corneas were stored in Minimum Essential Medium (MEM) supplemented with Non-Essential Amino Acids, L-Glutamine (2 mM), penicillin (200 U/ml)+spectinomycin (25 μg/ml) until further use at 4° C. up to two weeks.
(§3) Cornea infection and pyocin treatment. P. aeruginosa was grown overnight from frozen stock. Next morning, the culture was diluted 100 fold by fresh LB medium, and grown until OD595=˜0.6 (˜6 hours). Bacteria were collected by centrifugation and re-suspended in PBS. The dissected corneas were placed on agarose-gelatin (0.5% each) solid support in a 6-well culture plate containing 800 μL MEM with antibiotics (100 U/ml penicillin, 25 μg/ml spectinomycin), then three horizontal and 3 vertical scratches were made using a sterile 25 gauge needle. 3×10^4 CFU of P. aeruginosa ATCC 19660 strain or 0.4×10^4 CFU of PAO1 strain were applied to cornea and incubated for 16-20 hours in 37° C. CO2 incubator ([…]). 5 corneas were used for each experimental point. After incubation with P. aeruginosa, the corneas were visually inspected for opacity. The corneas which were clear and without signs of infection were considered as non-infected and discarded from further study. 5 μg of S5-PmnH (in 5 μl of PBS) or 5 μl of PBS were applied to infected corneas and incubated for additional 16-20 hours in 37° C. CO2 incubator.
(§4) Homogenization and CFU counting. Prior the homogenization the corneas were washed 3 times for 10 min in 50 ml sterile PBS with occasional agitation. Each cornea was chopped in 4 equal parts, trying to get rid of sclera. […]

P. aeruginosa PAO1 [4] = assay: as above; type: cell-based; conditions: 5 μg applied 16-20 h after colonization, further 16-20 h incubation
Protocol: as §2, §3, §4

P. aeruginosa PAO1 [5] = assay: murine keratitis model, invasive strain (C57BL/6 mice); type: in vivo
Protocol: The inbred mice of C57BL/6 strain of both sexes in equivalent numbers were used for the research. 2-6 months old, adult female and adult male mice were purchased from the Vilnius University vivarium of laboratory animals. The animals throughout the period of the experiment were given standard chow and drinking water ad libitum. Animals were housed in the individual plastic cages in a 12 h light/dark cycle at 21-23° C. All regulated procedures on living animals were approved by The Lithuanian Ethics Committee of Biomedical Research (Protocol no. B1-442) and were carried out in accordance with the European Union legislation of OECD (directive 2010/63/EU). The experiments were carried out in Biological research center of Lithuanian University of Health Sciences.
For P. aeruginosa infection and keratitis induction the mice were anesthetized by Ketamine and Xylazine 90:9 mg/kg intraperitoneal injection. The cornea of the left eye of each mouse was visualized under a stereoscopic microscope, and three 1 mm scratches were made using a sterile 25 gauge needle. A 10 μL aliquot containing 4×10^6 cells of P. aeruginosa ATCC 19660 (cytotoxic strain) or PAO1 ATCC 15692 (invasive strain) was applied to the corneal surface. Depending on the experiment, the treatment was started 30 min or 6 h post infection. 10 μl aliquot containing 0.14 mg of tobramycin or 20 μg of S5-PmnH (both containing 0.5% hydroxypropyl methylcellulose (HPMC)) or PBS containing 0.5% HPMC was applied as one drop of substance to the each eye. HPMC is used as artificial tears and was used in order to thicken the tears film and prolong the presence of the applied product on the surface of the cornea. The treatment was continued for five days twice daily. Mice were euthanized by cervical dislocation 1, 3, 5 days post infection, and the eyeballs were collected and homogenized for viable bacteria count.
The eyes were examined and photographed with a dissection microscope equipped with a digital camera at 1, 3 and 5 dpi to monitor the disease progression. At 1, 3 and 5 dpi disease severity was visually graded by using an established corneal damage scale: 0, the pupil was partially or fully covered by clear or slight opacity; +1, the anterior segment was partially or fully covered by slight opacity; +2, the pupil was partially or fully covered by dense opacity; +3, the entire anterior segment was covered by dense opacity; and +4, corneal perforation^40.
Histopathology experiments were carried out at Lithuanian University of Health Sciences, Department of Veterinary Pathobiology of Veterinary Academy. One randomly chosen mice of each study group was used for histopathology experiments. Enucleated eyes were preserved in 10% formaldehyde. Eyes were paraffin-embedded, cut into 3-μm-thick sections, deparaffinised, rehydrated and used for preparation of hematoxylin/eosin stained samples.

B1: S5-PmnH (protein)
chain: MSNDNEVPGSMVIVAQGPDDQYAYEVPPIDSAAVAGNMFGDLIQREIYLQKNIYYPVRSIFEQGTKEKKEINKKVSDQVDGLLKQITQGKREATRQERVDVMSAVLHKMESDLEGYKKTFTKGPFIDYEKQSSLSIYEAWVKIWEKNSWEERKKYPFQQLVRDELERAVAYYKQDSLSEAVKVLRQELNKQKALKEKEDLSQLERDYRTRKANLEMKVQSELDQAGSALPPLVSPTPEQWLERATRLVTQAIADKKQLQTTNNTLIKNSPTPLEKQKAIYNGELLVDEIASLQARLVKLNAETTRRRTEKELTPDEKAAYTDAVSFVSTANEQMLQKYGANLSKVAQDMQAEIAGKKVRSYAEAMATFEKISANPAMKLNALDTQAVVDALNALDKASFADNITRLGKAFGVVGKVVQAEAIREKTVSGFQTGDWKPLMLELEAMAVGTGAGILLATSMAFFFPVFASAAAGVVVVALMMAATAAYFDAAKVDEINNLILN
modifications: Chimeric S5-PmnH
Q: How did the “MIC determined by agar dilution method” value (P. aeruginosa ATCC 19660 [1]) turn out when B1 was run?
A: The value was 32 µg/mL.

Q: And the “MIC determined by agar dilution method” value (P. aeruginosa PAO1 [2])?
A: Its value is 4 µg/mL.

Q: And the “reduction of CFU number” value (P. aeruginosa ATCC 19660 [3])?
A: The value was 5.3 log10.

Q: What about the “burden in treated corneas (average)” value (P. aeruginosa PAO1 [4]) of the same molecule?
A: Its value is 10 CFU per cornea.

Q: What about the “reduction of burden vs untreated corneas” value (P. aeruginosa PAO1 [4]) of the same molecule?
A: Its value is 6.6 log10.

Q: What about the “histological examination of infected treated eyes” value (shortened to “histological examination”) (P. aeruginosa PAO1 [5]; 1 dpi) of the same molecule?
A: Its value is “signs of acute inflammation of cornea”.

Q: And the “histological examination” value (P. aeruginosa PAO1 [5]; 3 dpi)?
A: The value was “signs of acute inflammation of cornea”.

Q: What about the “histological examination” value (P. aeruginosa PAO1 [5]; day 5) of the same molecule?
A: Its value is “no aberrations”.

Q: And the “average reduction of bacterial burden vs mock-treated” value (P. aeruginosa PAO1 [5]; treatment started 6 h post infection, 1 dpi)?
A: Its value is 1.04 log 10 CFU/cornea.

Q: What about the “viable bacteria in cornea, individual mouse” value (P. aeruginosa PAO1 [5]; treatment started 6 h post infection, 3 dpi, third mouse) of the same molecule?
A: The value was 2.38 log 10 CFU.

Q: And the “mice from which no viable bacteria were isolated” value (P. aeruginosa PAO1 [5]; treatment started 6 h post infection, 3 dpi, three mice per group)?
A: Its value is “two”.

Q: And the “viable bacteria in cornea, individual mice” value (P. aeruginosa PAO1 [5]; treatment started 6 h post infection, 5 dpi, mice with bacteria)?
A: The value was 5.14 log 10 CFU/cornea and 3.34 log 10 CFU/cornea.

Q: And the “mice from which no bacteria were isolated” value (P. aeruginosa PAO1 [5]; treatment started 6 h post infection, 5 dpi, three mice per group)?
A: Its value is “one”.
